Assay [1] addresses recombinant trimeric HA of A/Victoria/210/2009 (H3N2) (influenza A virus A/Victoria/210/2009 (H3N2)).
For assay [2], the target named is recombinant trimeric HA of A/New Caledonia/20/1999 (H1N1) (influenza A virus A/New Caledonia/20/1999 (H1N1)) (UniProt Q6WG00).

For the substance “Fab-deficient (ΔFab) IgA1 monomer (domain or fragment)”, in assay [1], the HI activity, minimum HI concentration, Vic210 virus worked out at 794 µg/mL and the NT activity, minimum virus-neutralizing concentration, Vic210 virus was above 500 µg/mL. Further, the HI activity, minimum HI concentration, NC20 virus in assay [2] is above 500 µg/mL.

With “Fab-deficient (ΔFab) IgA2m2 monomer (domain or fragment)”, in assay [1], the HI activity, minimum HI concentration, Vic210 virus amounted to 500 µg/mL and the NT activity, minimum virus-neutralizing concentration, Vic210 virus is above 500 µg/mL. In addition, in assay [2], the HI activity, minimum HI concentration, NC20 virus was above 500 µg/mL.

For the origin of these results see article PMC7790537.
